Measurements reported in US20160009806A1 (Seagen, published 2016).

B1: murine 15H3 antibody conjugated with vcMMAE (antibody, V domains shown)
VH: EVQLQQSGPELVKPGASVKISCKASGYSFSGYFMNWVKQSHGQSLEWIGLINPYNGDSFYNQKFKGKATLTVQKSSSTAHMELQSLTSEDSAVFYCVRGLRRDFDYWGQGTPLTVSS
VL: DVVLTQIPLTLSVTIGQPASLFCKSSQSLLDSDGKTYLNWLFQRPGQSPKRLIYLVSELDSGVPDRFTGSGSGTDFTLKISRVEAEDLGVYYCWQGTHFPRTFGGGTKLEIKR
modifications: vcMMAE drug-linker conjugated to the antibody (site and loading not stated for the murine ADC)
B2: murine 15H3 antibody conjugated with mcMMAF (antibody, V domains shown)
VH: EVQLQQSGPELVKPGASVKISCKASGYSFSGYFMNWVKQSHGQSLEWIGLINPYNGDSFYNQKFKGKATLTVQKSSSTAHMELQSLTSEDSAVFYCVRGLRRDFDYWGQGTPLTVSS
VL: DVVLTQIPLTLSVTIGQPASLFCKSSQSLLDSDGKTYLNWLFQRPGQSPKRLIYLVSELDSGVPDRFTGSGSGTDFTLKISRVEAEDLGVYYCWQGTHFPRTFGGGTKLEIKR
modifications: mcMMAF drug-linker conjugated to the antibody (site and loading not stated for the murine ADC)
B3: humanized 15H3 antibody HBLA (antibody, V domains shown)
VH: QVQLVQSGAEVKKPGASVKVSCKASGYSFSGYFMNWVRQAPGQGLEWMGLINPYNGDSFYNQKFKGRVTMTRDTSTSTVYMELSSLRSEDTAVYYCARGLRRDFDYWGQGTLVTVSS
VL: DVVMTQSPLSLPVTLGQPASISCKSSQSLLDSDGKTYLNWFQQRPGQSPRRLIYLVSELDSGVPDRFSGSGSGTDFTLKISRVEAEDVGVYYCWQGTHFPRTFGGGTKLEIKR
notes: HB heavy chain with LA light chain of the first humanization round
B4: humanized 15H3 antibody HBLF (antibody, V domains shown)
VH: QVQLVQSGAEVKKPGASVKVSCKASGYSFSGYFMNWVRQAPGQGLEWMGLINPYNGDSFYNQKFKGRVTMTRDTSTSTVYMELSSLRSEDTAVYYCARGLRRDFDYWGQGTLVTVSS
VL: DVVMTQSPLSLPVTLGQPASLFCKSSQSLLDSDGKTYLNWLFQRPGQSPKRLIYLVSELDSGVPDRFTGSGSGTDFTLKISRVEAEDVGVYYCWQGTHFPRTFGGGTKLEIKR
notes: HB heavy chain with LF light chain of the first humanization round
B5: humanized 15H3 antibody HBLB (antibody, V domains shown)
VH: QVQLVQSGAEVKKPGASVKVSCKASGYSFSGYFMNWVRQAPGQGLEWMGLINPYNGDSFYNQKFKGRVTMTRDTSTSTVYMELSSLRSEDTAVYYCARGLRRDFDYWGQGTLVTVSS
VL: DVVMTQSPLSLPVTLGQPASLFCKSSQSLLDSDGKTYLNWFQQRPGQSPRRLIYLVSELDSGVPDRFSGSGSGTDFTLKISRVEAEDVGVYYCWQGTHFPRTFGGGTKLEIKR
notes: HB heavy chain with LB light chain of the first humanization round
B6: humanized 15H3 antibody HBLE (antibody, V domains shown)
VH: QVQLVQSGAEVKKPGASVKVSCKASGYSFSGYFMNWVRQAPGQGLEWMGLINPYNGDSFYNQKFKGRVTMTRDTSTSTVYMELSSLRSEDTAVYYCARGLRRDFDYWGQGTLVTVSS
VL: DVVMTQSPLSLPVTLGQPASISCKSSQSLLDSDGKTYLNWFQQRPGQSPRRLIYLVSELDSGVPDRFTGSGSGTDFTLKISRVEAEDVGVYYCWQGTHFPRTFGGGTKLEIKR
notes: HB heavy chain with LE light chain of the first humanization round
B7: humanized 15H3 antibody HBLD (antibody, V domains shown)
VH: QVQLVQSGAEVKKPGASVKVSCKASGYSFSGYFMNWVRQAPGQGLEWMGLINPYNGDSFYNQKFKGRVTMTRDTSTSTVYMELSSLRSEDTAVYYCARGLRRDFDYWGQGTLVTVSS
VL: DVVMTQSPLSLPVTLGQPASISCKSSQSLLDSDGKTYLNWFQQRPGQSPKRLIYLVSELDSGVPDRFSGSGSGTDFTLKISRVEAEDVGVYYCWQGTHFPRTFGGGTKLEIKR
notes: HB heavy chain with LD light chain of the first humanization round
B8: humanized 15H3 antibody HLLG (antibody, V domains shown)
VH: QVQLVQSGAEVKKPGASVKVSCKASGYSFSGYFMNWVRQAPGQGLEWMGLINPYNGDSFYNQKFKGRVTMTRDKSSSTAYMELSSLRSEDTAVYYCARGLRRDFDYWGQGTLVTVSS
VL: DVVLTQSPLSLPVTLGQPASISCKSSQSLLDSDGKTYLNWLFQRPGQSPRRLIYLVSELDSGVPDRFSGSGSGTDFTLKISRVEAEDVGVYYCWQGTHFPRTFGGGTKLEIKR
B9: humanized 15H3 antibody HMLC (antibody, V domains shown)
VH: QVQLVQSGAEVKKPGASVKVSCKASGYSFSGYFMNWVRQAPGQGLEWMGLINPYNGDSFYNQKFKGRVTMTRQKSSSTAYMELSSLRSEDTAVYYCARGLRRDFDYWGQGTLVTVSS
VL: DVVMTQSPLSLPVTLGQPASISCKSSQSLLDSDGKTYLNWLFQRPGQSPRRLIYLVSELDSGVPDRFSGSGSGTDFTLKISRVEAEDVGVYYCWQGTHFPRTFGGGTKLEIKR
B10: humanized 15H3 antibody HRLG (antibody, V domains shown)
VH: QVQLVQSGAEVKKPGASVKVSCKASGYSFSGYFMNWVRQAPGQGLEWMGLINPYNGDSFYNQKFKGRVTMTRDTSSSTAYMELSSLRSEDTAVYYCARGLRRDFDYWGQGTLVTVSS
VL: DVVLTQSPLSLPVTLGQPASISCKSSQSLLDSDGKTYLNWLFQRPGQSPRRLIYLVSELDSGVPDRFSGSGSGTDFTLKISRVEAEDVGVYYCWQGTHFPRTFGGGTKLEIKR
B11: humanized 15H3 antibody HNLC (antibody, V domains shown)
VH: QVQLVQSGAEVKKPGASVKVSCKASGYSFSGYFMNWVRQAPGQGLEWMGLINPYNGDSFYNQKFKGRVTMTRQTSTSTVYMELSSLRSEDTAVYYCARGLRRDFDYWGQGTLVTVSS
VL: DVVMTQSPLSLPVTLGQPASISCKSSQSLLDSDGKTYLNWLFQRPGQSPRRLIYLVSELDSGVPDRFSGSGSGTDFTLKISRVEAEDVGVYYCWQGTHFPRTFGGGTKLEIKR
B12: humanized 15H3 antibody HMLG (antibody, V domains shown)
VH: QVQLVQSGAEVKKPGASVKVSCKASGYSFSGYFMNWVRQAPGQGLEWMGLINPYNGDSFYNQKFKGRVTMTRQKSSSTAYMELSSLRSEDTAVYYCARGLRRDFDYWGQGTLVTVSS
VL: DVVLTQSPLSLPVTLGQPASISCKSSQSLLDSDGKTYLNWLFQRPGQSPRRLIYLVSELDSGVPDRFSGSGSGTDFTLKISRVEAEDVGVYYCWQGTHFPRTFGGGTKLEIKR
B13: humanized 15H3 antibody HNLG (antibody, V domains shown)
VH: QVQLVQSGAEVKKPGASVKVSCKASGYSFSGYFMNWVRQAPGQGLEWMGLINPYNGDSFYNQKFKGRVTMTRQTSTSTVYMELSSLRSEDTAVYYCARGLRRDFDYWGQGTLVTVSS
VL: DVVLTQSPLSLPVTLGQPASISCKSSQSLLDSDGKTYLNWLFQRPGQSPRRLIYLVSELDSGVPDRFSGSGSGTDFTLKISRVEAEDVGVYYCWQGTHFPRTFGGGTKLEIKR
B14: humanized 15H3 antibody HULC (antibody, V domains shown)
VH: QVQLVQSGAEVKKPGASVKVSCKASGYSFSGYFMNWVRQAPGQGLEWMGLINPYNGDSFYNQKFKGRVTMTRQKSSSTAYMELSSLRSEDTAVYYCVRGLRRDFDYWGQGTLVTVSS
VL: DVVMTQSPLSLPVTLGQPASISCKSSQSLLDSDGKTYLNWLFQRPGQSPRRLIYLVSELDSGVPDRFSGSGSGTDFTLKISRVEAEDVGVYYCWQGTHFPRTFGGGTKLEIKR
B15: humanized 15H3 antibody HLLC (antibody, V domains shown)
VH: QVQLVQSGAEVKKPGASVKVSCKASGYSFSGYFMNWVRQAPGQGLEWMGLINPYNGDSFYNQKFKGRVTMTRDKSSSTAYMELSSLRSEDTAVYYCARGLRRDFDYWGQGTLVTVSS
VL: DVVMTQSPLSLPVTLGQPASISCKSSQSLLDSDGKTYLNWLFQRPGQSPRRLIYLVSELDSGVPDRFSGSGSGTDFTLKISRVEAEDVGVYYCWQGTHFPRTFGGGTKLEIKR
notes: also called h15H3-2
B16: humanized 15H3 antibody HRLC (antibody, V domains shown)
VH: QVQLVQSGAEVKKPGASVKVSCKASGYSFSGYFMNWVRQAPGQGLEWMGLINPYNGDSFYNQKFKGRVTMTRDTSSSTAYMELSSLRSEDTAVYYCARGLRRDFDYWGQGTLVTVSS
VL: DVVMTQSPLSLPVTLGQPASISCKSSQSLLDSDGKTYLNWLFQRPGQSPRRLIYLVSELDSGVPDRFSGSGSGTDFTLKISRVEAEDVGVYYCWQGTHFPRTFGGGTKLEIKR
B17: humanized 15H3 antibody HSLC (antibody, V domains shown)
VH: QVQLVQSGAEVKKPGASVKVSCKASGYSFSGYFMNWVRQAPGQGLEWMGLINPYNGDSFYNQKFKGRVTMTRQTSSSTAYMELSSLRSEDTAVYYCARGLRRDFDYWGQGTLVTVSS
VL: DVVMTQSPLSLPVTLGQPASISCKSSQSLLDSDGKTYLNWLFQRPGQSPRRLIYLVSELDSGVPDRFSGSGSGTDFTLKISRVEAEDVGVYYCWQGTHFPRTFGGGTKLEIKR

biological target: T1, human integrin αvβ6 on cells (human, UniProt P06756 31-1048; P18564 22-788); assay: cell-based or functional assay
T1 sequence (P06756 31-1048, chain 1 of 2): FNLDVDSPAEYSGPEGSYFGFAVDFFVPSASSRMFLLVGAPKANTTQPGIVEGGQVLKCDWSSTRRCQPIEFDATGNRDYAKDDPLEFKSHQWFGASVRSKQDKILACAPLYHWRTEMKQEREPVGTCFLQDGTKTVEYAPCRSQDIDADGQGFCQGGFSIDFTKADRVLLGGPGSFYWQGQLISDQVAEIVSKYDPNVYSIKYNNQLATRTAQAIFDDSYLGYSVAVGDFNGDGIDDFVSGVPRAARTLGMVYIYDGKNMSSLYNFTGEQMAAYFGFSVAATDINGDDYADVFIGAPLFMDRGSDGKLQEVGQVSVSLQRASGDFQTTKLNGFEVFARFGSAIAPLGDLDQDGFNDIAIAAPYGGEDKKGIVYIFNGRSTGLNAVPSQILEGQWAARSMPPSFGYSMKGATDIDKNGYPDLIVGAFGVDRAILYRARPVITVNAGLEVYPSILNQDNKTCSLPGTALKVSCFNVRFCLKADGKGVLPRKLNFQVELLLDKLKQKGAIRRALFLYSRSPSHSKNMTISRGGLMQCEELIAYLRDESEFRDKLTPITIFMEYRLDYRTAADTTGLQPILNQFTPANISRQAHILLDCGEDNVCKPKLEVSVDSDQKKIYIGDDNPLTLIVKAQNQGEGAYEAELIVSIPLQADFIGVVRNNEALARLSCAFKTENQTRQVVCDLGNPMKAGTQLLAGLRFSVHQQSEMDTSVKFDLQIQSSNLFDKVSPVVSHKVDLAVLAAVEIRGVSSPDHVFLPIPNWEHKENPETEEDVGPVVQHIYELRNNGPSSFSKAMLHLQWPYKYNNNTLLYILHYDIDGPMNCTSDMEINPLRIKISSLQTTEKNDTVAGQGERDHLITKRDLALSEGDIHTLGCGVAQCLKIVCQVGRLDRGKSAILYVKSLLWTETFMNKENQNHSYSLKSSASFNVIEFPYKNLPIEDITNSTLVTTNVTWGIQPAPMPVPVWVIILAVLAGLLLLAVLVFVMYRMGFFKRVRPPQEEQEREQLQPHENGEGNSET
T1 sequence (P18564 22-788, chain 2 of 2): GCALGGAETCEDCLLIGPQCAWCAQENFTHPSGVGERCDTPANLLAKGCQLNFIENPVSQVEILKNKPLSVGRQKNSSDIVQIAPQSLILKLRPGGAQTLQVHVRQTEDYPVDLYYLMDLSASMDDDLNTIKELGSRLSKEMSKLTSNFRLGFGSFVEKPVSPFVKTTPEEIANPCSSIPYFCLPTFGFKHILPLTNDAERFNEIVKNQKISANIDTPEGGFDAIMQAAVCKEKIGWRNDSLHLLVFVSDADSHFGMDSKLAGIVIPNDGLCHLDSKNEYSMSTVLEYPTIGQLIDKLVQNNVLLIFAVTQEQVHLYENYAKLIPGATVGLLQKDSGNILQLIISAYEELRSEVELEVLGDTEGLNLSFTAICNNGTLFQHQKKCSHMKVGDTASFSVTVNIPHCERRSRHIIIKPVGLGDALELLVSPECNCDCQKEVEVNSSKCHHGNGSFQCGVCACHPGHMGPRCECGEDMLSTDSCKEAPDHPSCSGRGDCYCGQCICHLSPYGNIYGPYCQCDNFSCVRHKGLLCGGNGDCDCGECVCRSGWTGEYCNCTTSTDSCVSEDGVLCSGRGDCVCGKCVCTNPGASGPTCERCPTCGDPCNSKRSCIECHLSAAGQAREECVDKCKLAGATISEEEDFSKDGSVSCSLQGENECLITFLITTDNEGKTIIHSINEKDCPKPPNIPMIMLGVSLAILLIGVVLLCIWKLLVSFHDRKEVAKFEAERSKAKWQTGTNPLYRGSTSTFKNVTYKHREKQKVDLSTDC

Row | Binder | IC50 (ng/ml), cytotoxicity assay on 5637 cells (36 x10^3 αvβ6 copies/cell) [ng/mL] | IC50 (ng/ml), cytotoxicity assay on BxPC3 cells (37 x10^3 αvβ6 copies/cell) [ng/mL] | IC50 (ng/ml), cytotoxicity assay on Capan-1 cells (19 x10^3 αvβ6 copies/cell) [ng/mL] | IC50 (ng/ml), cytotoxicity assay on HPAFII cells (22 x10^3 αvβ6 copies/cell) [ng/mL] | IC50 (ng/ml), cytotoxicity assay on HupT4 cells (184 x10^3 αvβ6 copies/cell) [ng/mL] | IC50 (ng/ml), cytotoxicity assay on Panc08.13 cells (137 x10^3 αvβ6 copies/cell) [ng/mL] | IC50 (ng/ml), cytotoxicity assay on RT4 cells (42 x10^3 αvβ6 copies/cell) [ng/mL] | IC50 (ng/ml), cytotoxicity assay on SW780 cells (80 x10^3 αvβ6 copies/cell) [ng/mL]
1 | B1 | > 1000 | 34 | 365 | 76 | 35 | 93 | > 1000 | 614
2 | B2 | > 1000 | 7 | 1510 | > 2000 | 16 | 1400 | > 1000 | 86

biological target: T1, human integrin αvβ6 on cells; assay: competition binding on 293F cells expressing human αvβ6 (FIG. 2)
Method: (§1) 1×10⁵ antigen expressing cells were aliquoted in each well of a 96-well v-bottom plate on ice. […] Cells were pelleted and washed 3 times with PBS. The cells were pelleted and resuspended in 125 uL of PBS/BSA. Fluorescence was analyzed by flow cytometery, using percent of saturated fluorescent signal to determine percent labeled murine 15H3 bound and to subsequently extrapolate the EC50 by fitting the data to a sigmoidal dose-response curve with variable slope.

Row | Binder | binding result
3 | B3 | binds
4 | B4 | binds
5 | B5 | binds
6 | B6 | binds
7 | B7 | binds

biological target: T1, human integrin αvβ6 on cells; assay: competition binding, flow cytometry on 293F cells expressing αvβ6; competitor 2 nM AlexaFluor-647 m15H3
Method: as §1

Row | Binder | EC50 [nM]
8 | B8 | 0.97
9 | B9 | 0.49
10 | B10 | 23.9
11 | B11 | 11.1
12 | B12 | 1.07
13 | B13 | 3.16
14 | B14 | 0.93
15 | B15 | 0.74
16 | B16 | 26.7
17 | B17 | 32.5
